Experimental data from US20210061908A1 (IOMX THERAPEUTICS, published 2021).
Positions count from the first letter of the chain named.

T1: extracellular domain (ECD) of human IGSF11 (VSIG3), biotinylated (human, UniProt Q5DX21 23-241, biotinylated (site not stated))
T1 construct: also called human IGSF11 protein
T1 sequence: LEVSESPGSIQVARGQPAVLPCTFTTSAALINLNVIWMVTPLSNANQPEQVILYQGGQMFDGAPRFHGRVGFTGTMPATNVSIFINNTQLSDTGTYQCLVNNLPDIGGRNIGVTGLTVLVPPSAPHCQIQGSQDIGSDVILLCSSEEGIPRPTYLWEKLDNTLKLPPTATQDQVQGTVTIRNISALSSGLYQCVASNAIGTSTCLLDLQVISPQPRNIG

T2: extracellular domain (ECD) of murine IGSF11, biotinylated (mouse, UniProt P0C673 23-240, biotinylated (site not stated))
T2 construct: also called Mouse IGSF11; murine IGSF11 protein
T2 sequence: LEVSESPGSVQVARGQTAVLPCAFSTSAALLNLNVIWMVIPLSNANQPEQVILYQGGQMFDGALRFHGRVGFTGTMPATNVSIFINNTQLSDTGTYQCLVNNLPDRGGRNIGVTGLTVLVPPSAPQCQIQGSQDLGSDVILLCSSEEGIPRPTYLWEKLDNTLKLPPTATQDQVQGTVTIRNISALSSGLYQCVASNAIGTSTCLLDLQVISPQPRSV

B1: A-014 (scFv format) (scFv, V domains shown)
VH: QVQLVQSGAEVKKPGASVKVSCKASGYTFNDYYIHWVRQAPGQGLEWMGWFNPSTGGANYAQKFQGRVTMTRDTSISTAYLEVSSLRSDDTAVYYCARGNSPDLDYWGQGTLVTVSS
VL: DIQMTQSPDSLTVSLGERATINCKSSQSLLHSSNNKNYLAWYQQRPGQPPKLLIYWASTRQSGVPDRFSGSGSGTDFTLTINSLQADDMAVYYCQQYYTTTPNTFGQGTKLEIK
notes: scFv
B2: A-026 (scFv format) (scFv, V domains shown)
VH: QVQLQESGPGLVKPSQTLSLTCTVSGGSISSGGYYWSWIRQHPGKGLEWIGYIYYSGSTYYNPSLKSRVTISVDTSKNQFSLKLSSVTAADTAVYYCASWSLGTSNHGWFDPWGQGTLVTVSS
VL: QSVLTQPPSASGTPGQRVTISCSGSSSNIGSNTVNWYQQLPGTAPKLLISDNNNRPSGVPDRFSGSKSGTSASLAITGLQAEDEADYYCQSYDSNLSGWVFGGGTKLTVL
notes: scFv
B3: A-016 (scFv format) (scFv, V domains shown)
VH: QVQLQESGAEVKKPGASVKVSCKASGYTFTGYYMHWVRQAPGQGLEWMGGIIPIFGTANYAQKFQGRVTITADESTSTAYMELSSLRSEDTAVYYCAGAGMELTRSGAYYYYGMDVWGQGTTVTVSS
VL: QSALTQPASVSGSPGQSITISCTGTSSDIGGYTFVSWYQQHPGKAPKVMIHDVNNRPSGISNRFSGSKSGNTASLTISGLQAEDEADYYCSSVTSTNTYVFGTGTKVTVL
notes: scFv
B4: A-017 (scFv format) (scFv, V domains shown)
VH: QVQLVQSGAEVKKPGASVKVSCKASGYTFTGYYMHWVRQAPGQGLEWMGWINPNSGNTGYAQKFQGRVTMTRNTSISTAYMELSSLRSEDTAVYYCARGGQQQLVLDDYWGQGTLVTVSS
VL: DIVLTQSPASLSASVGDRITITCQASQDIRHHLNWFQHKPGKAPKLLISDSSNLETGVPSRFSGSGSGTDFSFTISRLQPEDIATYYCQQYDSLPRTFGQGTKLEIK
notes: scFv
B5: A-019 (scFv format) (scFv, V domains shown)
VH: B4 VH
VL: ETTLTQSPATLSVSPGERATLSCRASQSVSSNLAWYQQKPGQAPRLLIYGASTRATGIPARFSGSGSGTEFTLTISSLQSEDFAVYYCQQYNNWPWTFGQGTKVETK
notes: scFv
B6: A-023 (scFv format) (scFv, V domains shown)
VH: QVQLVQSGAEVKKPGSSVKVSCKASGGTFSSYAISWVRQAPGQGLEWMGGIIPIFGTANYAQKFQGRVTITADESTSTAYMELSSLRSEDTAVYYCARPKYSSGWFYYYGMDVWGQGTTVTVSS
VL: QSVLTQPPSVSAAPGQKVTISCSGSSSNIGNNYVSWYQQLPGTAPKLLIYDNNKRPSGIPDRFSGSKSGTSATLGITGLQTGDEADYYCGTWDSSLSVVFGGGTKLTVL
notes: scFv
B7: A-003 (scFv format) (scFv, V domains shown)
VH: VQLVQSGAEVKKPGSSVKVSCKASGGTFSSYAISWVRQAPGQGLEWMGGIIPIFGTANYAQKFQGRVTITADESTSTAYMELSSLRSEDTAVYYCASPRIQLWAAGGFDYWGQGTLVTVSS
VL: QSALTQPASVSGSPGQSITISCTGTSSDVGGYNLVSWYQQHPGKAPKLMIYDVSNRPSGVSNRFSGSKSGNTASLTISGLQAEDEADYYCSSFTTSTTLVFGGGTKLTVL
notes: scFv
B8: A-015 (scFv format) (scFv, V domains shown)
VH: not shown
VL: QPVLTQSPSASASLGASVKLTCTLSSGHTNYAIAWRQQQPGKAPRYLMLLNSDGSHTRGGGIPDRFSGSSSGAERYLTISSLQSEDEADYYCMIWHNNAWVFGGGTKLAVL
notes: scFv
B9: A-007 (scFv format) (scFv, V domains shown)
VH: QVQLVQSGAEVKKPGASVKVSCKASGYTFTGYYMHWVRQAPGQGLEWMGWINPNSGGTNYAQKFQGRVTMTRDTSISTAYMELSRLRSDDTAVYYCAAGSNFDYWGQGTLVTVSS
VL: QSALTQPASVSGSPGQSITIACTGSSSDIGSFSYVSWYQQRPGKAPTLIIYGVNNRPLGVSRRFSGSKSGNTASLSISGLQAEDEADYYCSSYTRRSTVIFGGGTKLTVL
notes: scFv
B10: A-011 (scFv format) (scFv, V domains shown)
VH: QVQLVESGGGVVQPGRSLRLSCAASGFTFSSYAMHWVRQAPGKGLEWVAVISYDGSNKYYADSVKGRFTISRDNSKNTLYLQMNSLRAEDTAVYYCAEGGALNYYGMDVWGQGTTVTVSS
VL: SSELTQDPGVSVALGQTVRITCQGDSLRHFYATWYQQKPGQAPILVIYGKNNRPSGIPDRFSGSSSEDTASLTITGAQAEDEADYYCQSRDPRNNHLIFGGGTKLIVL
notes: scFv
B11: A-013 (scFv format) (scFv, V domains shown)
VH: EVQLVESGGGLIQPGGSLRLSCAASGFTVSSNYMSWVRQAPGKGLEWVSVIYSGGSTYYADSVKGRFTISRDNSKNTLYLQMNSLRAEDTAVYYCARGNPYYYGDLQVNFDYWGQGTLVTVSS
VL: QAVVTQEPSLTVSPGGTVTLTCASSTGAVTSAYYPNWFQQKPGQAPRALIYSTSNKHSWTPARFSGSLLGGKAALTLSGVQPEDEADYYCLLYYGGAWVFGGGTKLTVL
notes: scFv
B12: A-022 (scFv format) (scFv, V domains shown)
VH: EVQLLESGPGLVKPSQTLSLTCTVSGGSISSGGYYWSWIRQHPGKGLEWIGYIYYSGSTYYNPSLKSRVTISVDTSKNQFSLKLSSVTAADTAVYYCARASRSTDYYFDYWGQGTLVTVSS
VL: QPGLTQPPSMSYGLGQTATLTCTGNRNNIGDQGAAWLQQHQGHPPKLLSYRNNNGPSGISERLSASRSGNTASLTISGLQPEDEADYYCSAWDSSLRAWVFGGGTKLTVL
notes: scFv
B13: A-009 (scFv format) (scFv, V domains shown)
VH: QVQLVQSGAEVKKPGSSVKVSCKASGGTFSSYAISWVRQAPGQGLEWMGGIIPIFGTANYAQKFQGRVTITADESTSTAYMELSSLRSEDTAVYYCARGRGFGELYFDYWGQGTLVTVSS
VL: ETTLTQSPATLSVSPGERATLSCRASQGVRSNIAWYQQKPGQAPRLLIYDSSTRATGIPARFSGSGSGTEFTLTISSLQSEDFAVYSCQQYKNWPRTFGQGTKVEIK
notes: scFv
B14: A-025 (scFv format) (scFv, V domains shown)
VH: B13 VH with S84T, R100G, G101W, F102L, G103R, E104Q, L105N, Y106W, Y109P
VL: SSELTQDPAVSVALGQTVRITCQGDSLRSYYASWYQQKPGQAPVLVIYGKNNRPSGIPDRFSGSSSGNTASLTITGAQAEDEADYYCNSRDSSGNHPRVFGGGTKLTVL
notes: scFv
B15: A-008 (scFv format) (scFv, V domains shown)
VH: QLQLQESGPGLVKPSETLSLTCTVSGGSISSSGYYWGWIRQPPGKGLEWIGSIYYSGSTYYNPSLKSRVTISVDTSKNQFSLKLSSVTAADTAVYYCARHRVRFGEFDAFDIWGQGTMVTVSS
VL: QAVLTQPPSVSGAPGERVTLSCTGTSSNVGADFDVHWYQQFPGTAPRLLIFGSDNRPSGVPDRFSGSKSGTSASLAITGLQVEDEADYYCQAYDVRLSGWVFGGGTKLTVL
notes: scFv
B16: A-010 (scFv format) (scFv, V domains shown)
VH: QVQLVQSGAEVKKPGASVKVSCKASGYTFTSYGISWVRQAPGQGLEWMGWISAYNGNTNYAQKLQGRVTMTTDTSTSTAYMELRSLRSDDTAVYYCARVPAWSGQFDYWGQGTLVTVSS
VL: QSALTQPASVSGSPGQSITISCTGSSSDVGGYNYVSWYQQYPGKAPKLMIYDVRSRPSGVSNRFSGSKSGNTASLTISGLQAEDEADYYCTSYTSSNTLVIFGGGTKVTVL
notes: scFv
B17: A-021 (scFv format) (scFv, V domains shown)
VH: B16 VH
VL: QSALTQPASVSGSPGQSITISCTGTSSDVGGYNYVSWYQQHPGKAPKLMIYEVTNRPSGVSDRFSGSKSANTASLTISELQAEDEAVYYCNSYTSGPTYVLFGGGTQLTVL
notes: scFv
B18: A-024 (scFv format) (scFv, V domains shown)
VH: QMQLVQSGAEVKKPGSSVKVSCKASGGTFSSYAISWVRQAPGQGLEWMGWISAYNGNTNYAQKLQGRVTMTTDTSTSTAYMELRSLRSDDTAVYYCASLGSYGYTGAFDIWGQGTMATVSS
VL: B16 VL with S25T, Y41H, D52E, R54S, S55N, T91S, N97S, I101V, V108L

What follows are binders tested against T1, extracellular domain (ECD) of human … (assay: ELISA, scFv; RFU grade (*** >1.0, ** 0.5-1.0, * 0.1-0.5)).

Binder | relative fluorescent units (RFU), ELISA [rfu]
B1 | 0.5 to 1
B2 | > 1
B3 | > 1
B4 | 0.5 to 1
B5 | > 1
B6 | 0.5 to 1
B7 | 0.1 to 0.5
B8 | 0.5 to 1
B9 | 0.5 to 1
B10 | 0.1 to 0.5
B11 | 0.5 to 1
B12 | 0.5 to 1
B13 | 0.5 to 1
B14 | 0.1 to 0.5
B15 | > 1
B16 | 0.5 to 1
B17 | 0.5 to 1
B18 | 0.5 to 1

The binders below were run against T2, extracellular domain (ECD) of murine … in the same assay as above.

Binder | relative fluorescent units (RFU), ELISA [rfu]
B1 | 0.1 to 0.5
B2 | > 1
B3 | 0.5 to 1
B4 | 0.1 to 0.5
B5 | 0.5 to 1
B6 | 0.1 to 0.5
B7 | 0.1 to 0.5
B8 | 0.5 to 1
B9 | 0.5 to 1
B10 | > 1
B11 | 0.5 to 1
B12 | > 1
B13 | 0.1 to 0.5
B14 | 0.1 to 0.5
B15 | > 1
B16 | 0.5 to 1
B17 | 0.1 to 0.5
B18 | 0.1 to 0.5
